Biological target: the molecule itself
Assay: FRET or BRET

B1: CD5 BRET pair (CD5Luc and CD5GFP) (receptor, human, UniProt P06127 25-495, looked up)
chain: RLSWYDPDFQARLTRSNSKCQGQLEVYLKDGWHMVCSQSWGRSSKQWEDPSQASKVCQRLNCGVPLSLGPFLVTYTPQSSIICYGQLGSFSNCSHSRNDMCHSLGLTCLEPQKTTPPTTRPPPTTTPEPTAPPRLQLVAQSGGQHCAGVVEFYSGSLGGTISYEAQDKTQDLENFLCNNLQCGSFLKHLPETEAGRAQDPGEPREHQPLPIQWKIQNSSCTSLEHCFRKIKPQKSGRVLALLCSGFQPKVQSRLVGGSSICEGTVEVRQGAQWAALCDSSSARSSLRWEEVCREQQCGSVNSYRVLDAGDPTSRGLFCPHQKLSQCHELWERNSYCKKVFVTCQDPNPAGLAAGTVASIILALVLLVVLLVVCGPLAYKKLVKKFRQKKQRQWIGPTGMNQNMSFHRNHTATVRSHAENPTASHVDNEYSQPPRNSHLSAYPALEGALHRSSMQPDNSSDSDYDLHGAQRL
In the case of B1, the “stoichiometry N” value is reported as 2.
